B1: unnamed (protein)
chain: MSEEVSKNLSETLFVKHKQAKETSALTQYMPTSQSLLDEIKEKNGFSWYRNLRRLQWVWQGVDPIEQEQVLARIASSKHSRTDEQWLDTVMGYHSGNWAYEWTRLGMEHQKRAGEMTNEAASEALFSASLCYSIAGYPHLKSDNLAIQAQVLANSAYLEAAKKSKYIIKQLEIPFEKGKITAHLHLTNTDKPHPVVIVSAGLDSLQTDMWRLFRDHLAKHDIAMLTVDMPSVGYSSKYPLTEDYSRLHQAVLNELFSIPYVDHHRVGLIGFRFGGNAMVRLSFLEQEKIKACVILGAPIHDIFASPQKLQQMPKMYLDVLASRLGKSVVDIYSLSGQMAAWSLKVQGFLSSRKTKVPILAMSLEGDPVSPYSDNQMVAFFSTYGKAKKISSKTITQGYEQSLDLAIKWLEDELLR
With B1 the Km (p-NP-C2; pH 7.5, 25 °C) was 18600 µM, the kcat (p-NP-C2; pH 7.5, 25 °C) was 0.67 s⁻¹ and the kcat/Km (p-NP-C2; pH 7.5, 25 °C) was 36 M⁻¹ s⁻¹.

B2: unnamed (protein)
chain: MTVTDIILIHGALNRGACYDAVVPLLEARGYRVHAPDLTGHTPGDGGHLSVVDMEHYTRPVADILARAEGQSILLGHSLGGASISWLAQHHPDKVAGLIYLTAVLTAPGITPETFVLPGEPNRGTPHALDLIQPVDEGRGLQADFSRLERLREVFMGDYPGEGMPPAEQFIQTQSTVPFGTPNPMEGRALEIPRLYIEALDDVVIPIAVQRQMQKEFPGPVAVVSLPASHAPYYSMPERLAEAIADFADAPAEYRQTATKAGPDRPAGADGGRADRADLP
In the case of B2, the Km (p-NP-C2; pH 7.5, 37 °C) is reported as 124 µM, the kcat (p-NP-C2; pH 7.5, 37 °C) is reported as 183 s⁻¹ and the kcat/Km (p-NP-C2; pH 7.5, 37 °C) is reported as 1.48e+06 M⁻¹ s⁻¹.

B3: unnamed (protein)
chain: MWLLPLVLTSLASSATWAGQPASPPVVDTAQGRVLGKYVSLEGLAQPVAVFLGVPFAKPPLGSLRFAPPQPAEPWSFVKNTTSYPPMCCQDPVVEQMTSDLFTNGKERLTLEFSEDCLYLNIYTPADLTKRGRLPVMVWIHGGGLVLGGAPMYDGVVLAAHENVVVVAIQYRLGIWGFFSTGDEHSRGNWGHLDQVAALHWVQENIANFGGDPGSVTIFGESAGGESVSVLVLSPLAKNLFHRAISESGVALTVALVRKDMKAAAKQIAVLAGCKTTTSAVFVHCLRQKSEDELLDLTLKMKFLTLDFHGDQRESHPFLPTVVDGVLLPKMPEEILAEKDFNTVPYIVGINKQEFGWLLPTMMGFPLSEGKLDQKTATSLLWKSYPIANIPEELTPVATDKYLGGTDDPVKKKDLFLDLMGDVVFGVPSVTVARQHRDAGAPTYMYEFQYRPSFSSDKKPKTVIGDHGDEIFSVFGFPLLKGDAPEEEVSLSKTVMKFWANFARSGNPNGEGLPHWPMYDQEEGYLQIGVNTQAAKRLKGEEVAFWNDLLSKEAAKKPPKIKHAEL
Work on B3 yielded a Km (p-NP-C2; pH 7.4, 37 °C) of 520 µM, a kcat (p-NP-C2; pH 7.4, 37 °C) of 20.2 s⁻¹ and a kcat/Km (p-NP-C2; pH 7.4, 37 °C) of 38800 M⁻¹ s⁻¹. For the same protein, the Km (p-NP-C4; pH 7.4, 37 °C) was 140 µM, the kcat (p-NP-C4; pH 7.4, 37 °C) was 27.4 s⁻¹ and the kcat/Km (p-NP-C4; pH 7.4, 37 °C) was 196000 M⁻¹ s⁻¹.

B4: unnamed (protein)
chain: MIRMALKPLVAACLLASLSTAPQAAPSPYSTLVVFGDSLSDAGQFPDPAGPAGSTSRFTNRVGPTYQNGSGEIFGPTAPMLLGNQLGIAPGDLAASTSPVNAQQGIADGNNWAVGGYRTDQIYDSITAANGSLIERDNTLLRSRDGYLVDRARQGLGADPNALYYITGGGNDFLQGRILNDVQAQQAAGRLVDSVQALQQAGARYIVVWLLPDLGLTPATFGGPLQPFASQLSGTFNAELTAQLSQAGANVIPLNIPLLLKEGMANPASFGLAADQNLIGTCFSGNGCTMNPTYGINGSTPDPSKLLFNDSVHPTITGQRLIADYTYSLLSAPWELTLLPEMAHGTLRAYQDELRSQWQADWENWQNVGQWRGFVGGGGQRLDFDSQDSAASGDGNGYNLTLGGSYRIDEAWRAGVAAGFYRQKLEAGAKDSDYRMNSYMASAFVQYQENRWWADAALTGGYLDYDDLKRKFALGGGERSEKGDTNGHLWAFSARLGYDIAQQADSPWHLSPFVSADYARVEVDGYSEKGASATALDYDDQKRSSKRLGAGLQGKYAFGSDTQLFAEYAHEREYEDDTQDLTMSLNSLPGNRFTLEGYTPQDHLNRVSLGFSQKLAPELSLRGGYNWRKGEDDTQQSVSLALSLDF
B4 gave a Km (p-NP-C4; pH 7.2) of 700 µM, a kcat (p-NP-C4; pH 7.2) of 247 s⁻¹ and a kcat/Km (p-NP-C4; pH 7.2) of 353000 M⁻¹ s⁻¹.

B5: unnamed (protein)
chain: MRKAPLLRFTLASLALACSQALAGPSPYSTLIVFGDSLADAGQFPDLVGGTPGARFTNRDADGNFAPVSPMILGGRLGVAPGDLNPSTSVGIQPDGNNWAVGGYTTQQILDSITTTSETVIPPGNPNAGLVLRERPGYLANGLRADPNALYYLTGGGNDFLQGLVNSPADAVAAGARLAASAQALQQGGARYIMVWLLPDLGQTPNFSGTPQQNPLSLLSAAFNQSLISQLGQIDAQIIPLNIPLLLSEALASPSQFGLASDQNLVGTCYSGDSCVENPVYGINGTTPDPTKLLFNDSVHPTIAGQQLIADYAYSILAAPWELTLLPEMAHASLRAHQDELRNQWQTPWQAVGQWQAFVASGAQDLDFDGQHSAASGDGRGYNLTVGGSYRLNDAWRLGLAGGANRQKLEAGEQDSDYKLNSYMASAFAQYRQDRWWADAALTAGHLDYSDLKRTFALGVNDRSEKGDTDGEAWAMSGRLGYNLAADTSNWQLAPFISADYARVKVDGYDEKSGRSTALGFDDQERTSRRLGVGLLGSVQVLPSTRLFAEVAQEHEFEDDEQDVTMHLTSLPANDFTLTGYTPHSDLTRASLGVSHELVAGVHLRGNYNWRKSDELTQQGISVGVSVDF
B5 gave a Km (p-NP-C4; pH 7.2) of 300 µM.

Source: the PETadex activity labels
